# Literature values, collected in paper PMC5408752.
# Key:
# [1] = molecular target: NisA precursor (Lactococcus lactis) (UniProt P13068); experiment: isothermal titration calorimetry
# [2] = molecular target: NisA leader leader (Lactococcus lactis) (UniProt P13068); experiment: isothermal titration calorimetry
# [3] = molecular target: nisin (Lactococcus lactis) (UniProt P13068); experiment: NMR titration
Kd [1] [µM],Kd [2] [µM],Kd [3] [µM],Substance
2,3.8,,NisC (from UniProt Q03202)
,,22,NisI CTD (from UniProt P42708)
